From patent publication US20160333065A1 come the findings set out here.

As a reminder, the IC50 is the concentration needed to halve the response being measured. Low readings indicate higher potency, high ones lower potency.

The target in the experiment is HLA-A1 (A*0101) (human). Nature of the experiment: cell competition vs YLEPAC(FI)AKY, stripped CAA B-LCL, FACS.

In the case of ITDDQLLAL (modifications not checked) [PRAME peptide …], the 50% inhibitory concentration (IC50) is 1 µM.
